Test: soluble on expression in E. coli; label from the status in PepcDB or PDB records

| Sequence | soluble on expression in E. coli |
| --- | --- |
| MGSDKIHHHHHHMFYYERVNQFDTIAVSVDSVDRRRIKGTIDLDGLKFIMYFDYTQDVDIDYDLAGMIMTMPVINYAYFAKRIKLNFPVSLSFLKLVKEFIRINNIETFINSIVRRRYEFFLKEYLPSDEEITQENAEGRTEVLADISDGDKKKLEVDDRKVIVLSSGGKESLLTFGILKEIGAVVYPVFFNESGAHWKTAKVAYDYFSSKYENVLRVWSNVDRFYSFVNRHLKILDQDEIRRKADSYPVQMFIFPVYIFSVLPYVIKYGIGNIALGDELDDPIYEEPYHGIKHYYGVYDQTNDFNLTLTSFLREYGIHCKVFSAVYPIFGTLVEKILVQRYNDLFRVQRSCHLCHYEGGDVKPCGTCSKCLGVLLFMLNAEADPTEAGYSIEHVKQLEDNVNSASMRLDPDELEYLKAKVFEGRRINSHIEGIHQLPGENSAFSLVPERFRDGVRSIVSKYSTGFYKFVGSEWVKID | not soluble |
| MGSDKIHHHHHHMGDKYLTLSELNLEGQLLGFVGGEPGKYKYLQLAVPSGNVEIKLPKELRRSLSLSLVPGQHIRICGHSKVDSRTSKIKIKAYRVTPIDGCPKQDLPPQIKARIMVCQKGGCLKRGGKGLLSDLEKTLCDRGLLDKVTIEHTSCQKCCNSAPNCVLHLGKKKYKNIHPDAIASLLESHLTE | not soluble |
| MGSDKIHHHHHHMGFVKPFSKINGSIIMVILGLLASACGQSGSETGGLVDANEPVSPQPNLGEQQGVLEQNLPVPNNQQTDYFRVILYGNSHVSGLPSLIQLLINTGVPQVRVEVKNVGGGFLDESYYNDAYQARLTATPWTHAIFQGQKYSQSGTSIYPTTAAQKWLDKAKSLGITPILFPEHPQDGKLEEGEYVYQLHQGITSMQSSCLAPIPLVWERVIQLLPDVHLHAPDGNHASSLGNFLTALVFYEVITGRSADLLPYLSNIAISEQIQSIFGQVVSEVLADKPACPTF | not soluble |
| MGSDKIHHHHHHMGFVSTTFDVLIIGAGPSGASAAVHAARTGLQTLLIDASSFPRDKTCGDGLTPRAIHQLELLGVADQVTGDYFNKGLKLHGFGGSVEAPWPETYFTNKGSAMSRMEFDDLLFRLAKSHEEVTTWENASAQDPILRGNFLEGVVINHAGQEKTVKAKHVIIADGVRSPFGKKLGRQWQRDEVYGIAARAYCETPLSDEPWIHSHVELRDEDGVVQPGYGWIFPLGNGTVNLGCGALSTDTRPAKINTKKLLSFYAGQRRKAWQLGPEHDVASALLPMGGAVSNVAGANWMLIGDSAACVNPLNGEGIDYGLETAAMAVDTLVENPKRDLTLVWPHRLRDAYGETFMLARTAARLLTYPQFLPMAGPLAFRGPLQKAIMPAAARLMGNLITEEDKDLLARGWQAAGSAISWARKGSPLWDSTSSLV | not soluble |
| MGSDKIHHHHHHMGIIATSFIPFRGLSVSNLSETNFSETSNANVDPQEIAKFEKMAATWWDPEGEFKPIHKLNPLRLNYIDQAVGGLFGKRVLDVGCGGGILSESMARLGARVDGLDMGAEPLDVAKLHALEMGVEINYIQDTAEHHRDSHQGQYDVVTCMEMLEHVPDPASVIKACSDMVKPGGYVFFSTINRNIRAYVETVIGAEYLLKMLPVGTHDHKKYIKPAELIGMADAVDLECVDATGITYNPLTEIFRYTKSLDVNYMIATVKQDD | not soluble |
| MGSDKIHHHHHHMGIKIPNMKPNYSLDDMRCFCMVAQYGSFKQAAVALQMPLSTLSRRIAKLEQDLALRLFNRDAHRVQLTFAGQRYYRRSAPIFDELDNVAACLQQDRNEAKGTIRISAPINFSVQVLVHHFNAFMRQYPDIELDLKLSNQTIDIDEEAMDLAFRIGHHSATHWIGRQLTNIRFAICGPANLDVSHIKAPADLAGLPTVLCSPMLTWSLQHIHSGEKQAYTATDNIRLKVDDMSLLTEVIAGGIGVGFIPDYHAQPLLESGKIQHILPAWSNQARGCEMLYRDRENIPYRVRLFIDFMLQRFKSNDGVM | not soluble |
| MGSDKIHHHHHHMGIRAGESGNSLSKALLEIEKEQPAPCYLLYGDAEYEISDAFTKIIDALLSPEDQALNLFVLDGEDEDPERIGENLMTPPLLPGRKVVAVRRTQLFSSRKTLKDLVKRIREQLNGKPQQAAKTFMTFLSLAGWNLEDFKGDGWKAISDKDWQTTVEGDAGEDRIKWLPQVVEVCVDLGLKGRSATGGGTDHLEAILRDGLPAGNVLLLTAESVDKRKKLFKTISELGRVLPFVVEKGEARQKNTLMDSARDLLATRGKRMSSGAWEVLGRKTGFQLRNSMAALEKLITYTGERKTIEVSDVEEVISRTREDKVFDLTAALAEKNLKGALSVLRSLREQGIHSLVILSMIVREMRLLLHARQLRNEGALPGYQPRMDYGRFQKSIYPTVKGWAGQAGDVHIELADSHPYVVFNILRNSENFSEKRLKRHLEDLLAMDLAMKSTAKDADLMLERFLIDVCRP | not soluble |
| MGSDKIHHHHHHMGIYMRDDILDIITLTTDFGTNEGYVGAMKGRILNILKKYNKDAKIIDISHEIKPFNIYHGAYVLLTAIPYFPPSVHVAVIDPTVGSERKSIVIETKSGYYLVGPDNGLFTYVAEKLGIKRIIKIDEERYKPSSTFHGRDVYAVVGAEILINNGYDGEELDEMVKIDETKKRVIHIDRFGNIITNIKKDEVTFKYYDTIMIKIRHKNGIEKIIKCKFVKSYFEEKNNFICLINSEGFLEISKFMDNASKLLNVDYLDEIEIIY | not soluble |
| MGSDKIHHHHHHMGLEDLYLSWPKWFSEALARYSSLEGALEGVEEIYYCGMGGSGAAGDYIEALLSIYAPQGPEFRVVKDFRPPRPPRHRGYGLVLASYSGNTLETVECGSLLSPAAGRVVAVTSGGRLLEMAKERGWLVARLPGGILPRVSFPWMLAASTAMLSGALGVDLEALKRLAGGLDTQGLKGEAERLAGFISRYRIASLVTCGPGIPLAVRLKNELAENAKMPSRLEIYPESSHNDIVALEAAEGLYGAVFIWIEHEGSLCPAVLDVVEGIYREYGVDTISIESSARGGPNATVAEYLSRTLVFGLASVRLALMRGFNPEETPPIDKYKRRLGEALRSQA | not soluble |
| MGSDKIHHHHHHMGLTLRQIEVIRAVMIAGTIAGAARLMNVAQPGVSRTMKHIESALGIKLFVKKAGRYVPTDEARDIFAQLQEVHRKVDDLQSSIGQLERGRGVELALGSVPSIANAMMPQAIAGLMRRYPDIRINFDILRIEEAIDYLLLGKGELVAMSYHLTHPSITFEPLSKGHLVCIAAREHPIAGRSRISAREIAEHPLIGIDPRDPYGAIMAGIFEREKLEYRTPIRARFGTTVCALVKRNLGIAVIDAFTVGGMADQGLAVIPISEDTEFQTYVAYRADAALSSYAERLVTTLRRVMDDSTGRSRGGRDA | not soluble |
| MGSDKIHHHHHHMGMNQISQDQIGQARILVVGDMMLDRYWFGDVERISPEAPVPVVQIKRSDERLGGAANVARNSAALGAQVGMLGVVGDDEPGRTIESLLSACKVQPYLHRDASVNTTIKLRVLAHQQQLLRVDFENPPTHEVLLSVLEGFQELVKQYEVLVLSDYGKGGLTHVGRMVEAGRAAGRMVLVDPKGDDYSRYRGATLITPNRAEIRRVVGAWKSEQDLTARAQNLRRDLQLEALLLTRSEEGMTLYTEAEVLHVSAQAREVYDVSGAGDTVIATLATMLAAGVSLKQAVQFANRAGGIVVGKLGTAVVSYPELFGAAG | not soluble |
| MGSDKIHHHHHHMGPYRFVNREFLIITYRTDMDRLREIVPEPLEVKEPLVHYEFIRMPDSTGFGDYTESGQVIPVEYKGQPGGYTLAMYLNDHPPIAGGRELWGFPKKLAQPTLQTHIDTLLGTLDYGPVRVATGTMGYKHQELDLEEQAKRLAGANFLLKIIPHVDGSARVCELVRYYLQDIEMKGAWTGPASLQLAPHALAPVADLPVLEIVEARHLLADLTLGLGEVVYDYLAQ | not soluble |
| MGSDKIHHHHHHMGRMKNTFPFVITISRQLGAGGAYIGQQLAKKLSIFYADREIIGQAARKLSVMEEELEPRDEKSLSLWQFLIQSCACTPETSYIPPQITVPSDRELFKTESEIITRIAQEHSTVIIGRCGSYILREHPNHVSMFLHGDLSFRKSRIQKIYHVSENVAEKMIVQSDEERSQYHYKFTGKDWADARQYGLSVNTGRTGVDKTVDCILTYLELIKVRDCIP | not soluble |
| MGSDKIHHHHHHMGRTLGVGTVTPNLIGAHRDLIQRYGGHYPVISAHIWFDGTGLDPRYQYVTVLRDPVDRFISWLYFIDKDVELTEDTRELKVGAQLFLRSEGEETNQTFMRSASNPYVNNFSSVVMRCNASWQQKMVAALSVLTDYDLVGFQADLPQFIEQLAKLLHVINYVSLRPVNVTSSRPQRDGISEKMLHAIRKLTEWDLELYSEIQRMANRQAPTIGVSCNIQPFNREFGDWGFKARKSSNVYWLGSYLTHYLAKDLSTRNGSVAGRALVSNGAKGYLCHGPYLDLDPGHYCAVANGVWITRGVTCNADVCSGKGAVLHAEETLVDLGAKGTEWSLPVDFALDEETTSVEFRLMVPDEHQVQLNTVTIVNEKMVMTILGLEPDSHAANRGVEKQNSGSTLIFPVQMSSKIGLRVGTTLQTTGQEGFLCYGPYMTLSRGIYRVNLMGSIGPQGLAGAYADIVCDAGKKGIHNEPLAITPFNEYVDSTVGKPWMFFLEQDVSDLEIRLWVSNQTEINLCGIVLQQIEET | not soluble |
| MGSDKIHHHHHHMGRVLIIGAGGVGTVVAHKVAQNADVFTDIMIASRTKEKCDNIVKAIGNPNIKTAKVDADNVDELVALFNDFKPEMVINVALPYQDLTIMEACLKAGVNYLDTANYEPKDEAHFEYSWQWAYHDRFKEAGLTAILGCGFDPGVSGIYTAYAAKHYFDEIQYLDIVDCNAGNHHKAFATNFNPEINIREITQNGRYYENGQWVTTGPLEIHKDLTYPNIGPRDSYLLYHEELESLVKHFPTIKRARFWMTFGQEYLTHLRVIQNIGMARIDEVDYNGTKIVPLQFLKAVLPNPQDLGENYEGETSIGCRIRGIKDGKERTYYVYNNCSHQEAYKETGMQGVSYTTGVPAMIGAMMFFKGEWQRPGVNNVEEFNPDPFMEQLNKQGLPWHEVFDKDLEL | not soluble |
| MGSDKIHHHHHHMHEVVQDYYGKQLQSTEDLKTSACCDVSNMPSWLKPLLANIHDEVLSRYYGCGLVCPALLEGCRILDLGCGSGRDVYALAQLVGSTGHVVGVDMTDEQLAIAKQHQDYHVDKFGYDNVTFLKGYIEKLDELNLDPNSFDIIVSNCVINLSPDKAAVMASVQRLLKPGGEFYFSDVYADRRIPQQLINDPVLYGECLSGALYWKDFERLARHADFLDPRLVEDRPLEITDPLLAAKIGDIQFFSATYRLFKIATLEDACEDHGQAVIYRGTIDQLPHHFNLDKHHAIETGRVFPVCGNTFRMLKESRFAKHFDFIGDDSRHYGIFAGCGDILPFGNQANIVSDSNVGQSVNSGSCC | not soluble |
| MGSDKIHHHHHHMHFSKEHINALETRTRAHFINSLSGFKSANLIGTQDRQGNTNLSIVSSVIHLGANPPLMGMIIRPHSVPRHTFENIMQTGLYTINHVNQSIYEQAHQTSARYDKDESEFEATGLTPEYLSDFCAPFVKESRLKYSVKLVEHQHLAINGTEFVIGEIVDVYVDDNAVQTDGFIDLQAIDTVAISGLDCYYTGDKLARLPYAKK | not soluble |
| MGSDKIHHHHHHMHGNADVKFGNESVFDLARGSSTNDELLNICMIRSGFKKFEEEKEIQNTDGFFIADTSVYIKLGNRLGYLTKDRLLASKSVYNELSERTKLTQMGKEIIVFYLGMYSYRHLHKSPPVSEYNKSGDIPLIEETRKIKENIPEKVTLITADRQLKQRARTLGVNVIFLNTLKSDSGNMSELLLCASNRREYMEKYDYARRDLTITINDKEVIKIESDPTKEGFSRIKTLNKEFNYAKLIEKLYEMI | not soluble |
| MGSDKIHHHHHHMHIKILKNRYPNIVVSKNPIKSSSDTISFFEEPYYFTIPKSNLSEEEAMLLHTLFPEPLPTFPKESTQFWFDLLFGNKELAMTNEKETYRITQFHIKTTTTKSMLQEWQKALLSFFSPEAELIMFSTNYGVIIEKSTGSLLGEEELIAVAGTLENDFYIQSTFFMGLFHPLNDRLRGLFAEERAIFNHNNREVVQTVASESLKVIALRMKESLITNELNDLFHQDDTWIPLIHTLFKNQGNISLTAKELFMHRNTIQYRLDKFYEQTNLSLRKMDGLLLAYLSTLQTNNSNHE | not soluble |

Reference: the DeepSol protein solubility set
